# Reference: IntAct's records for PubMed 31515488
# B1: Protein FAM9B (Homo sapiens), Q8IZU0 (parent)
# chain: MAAWGKKHAGKDPVRDECEERNRFTETREEDVTDEHGEREPFAETDEHTGANTKKPEDTAEDLTAKRKRMKMDKTCSKTKNKSKHALRKKQLKRQKRDYIHSLKLLNVLEEYITDEQKEEEEEEGEEEELIRIFQEQQKKWQQYRSVRRERLKEMKLLRDQFVKALEDFEDLCDRVFSDEDSELDN
# partner: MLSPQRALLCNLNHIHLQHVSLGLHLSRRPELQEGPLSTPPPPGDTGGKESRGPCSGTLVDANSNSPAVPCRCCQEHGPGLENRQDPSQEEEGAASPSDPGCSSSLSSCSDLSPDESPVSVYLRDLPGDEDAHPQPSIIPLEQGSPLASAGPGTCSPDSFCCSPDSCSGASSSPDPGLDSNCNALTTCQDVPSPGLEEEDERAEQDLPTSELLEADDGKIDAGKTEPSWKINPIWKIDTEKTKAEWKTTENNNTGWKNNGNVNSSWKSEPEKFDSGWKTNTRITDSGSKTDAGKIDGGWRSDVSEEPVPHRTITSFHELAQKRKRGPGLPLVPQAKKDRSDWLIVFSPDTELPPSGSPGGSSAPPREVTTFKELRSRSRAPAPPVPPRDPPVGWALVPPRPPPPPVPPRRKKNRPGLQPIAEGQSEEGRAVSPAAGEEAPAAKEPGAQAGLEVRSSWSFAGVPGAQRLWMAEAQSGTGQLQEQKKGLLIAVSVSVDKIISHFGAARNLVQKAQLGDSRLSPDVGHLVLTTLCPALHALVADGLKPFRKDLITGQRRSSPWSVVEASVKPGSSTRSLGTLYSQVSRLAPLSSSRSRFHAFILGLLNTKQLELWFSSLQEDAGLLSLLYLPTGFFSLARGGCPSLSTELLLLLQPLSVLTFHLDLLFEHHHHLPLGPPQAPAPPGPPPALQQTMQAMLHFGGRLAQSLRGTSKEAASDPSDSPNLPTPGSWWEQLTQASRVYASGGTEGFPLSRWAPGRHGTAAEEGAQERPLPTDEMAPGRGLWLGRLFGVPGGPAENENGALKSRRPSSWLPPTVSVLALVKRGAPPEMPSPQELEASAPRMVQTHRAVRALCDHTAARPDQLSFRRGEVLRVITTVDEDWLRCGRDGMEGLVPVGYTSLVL
# B2: Methylthioribulose-1-phosphate dehydratase (Homo sapiens), Q96GX9 (parent)
# chain: MSGCDAREGDCCSRRCGAQDKEHPRYLIPELCKQFYHLGWVTGTGGGISLKHGDEIYIAPSGVQKERIQPEDMFVCDINEKDISGPSPSKKLKKSQCTPLFMNAYTMRGAGAVIHTHSKAAVMATLLFPGREFKITHQEMIKGIKKCTSGGYYRYDDMLVVPIIENTPEEKDLKDRMAHAMNEYPDSCAVLVRRHGVYVWGETWEKAKTMCECYDYLFDIAVSMKKVGLDPSQLPVGENGIV
# partner: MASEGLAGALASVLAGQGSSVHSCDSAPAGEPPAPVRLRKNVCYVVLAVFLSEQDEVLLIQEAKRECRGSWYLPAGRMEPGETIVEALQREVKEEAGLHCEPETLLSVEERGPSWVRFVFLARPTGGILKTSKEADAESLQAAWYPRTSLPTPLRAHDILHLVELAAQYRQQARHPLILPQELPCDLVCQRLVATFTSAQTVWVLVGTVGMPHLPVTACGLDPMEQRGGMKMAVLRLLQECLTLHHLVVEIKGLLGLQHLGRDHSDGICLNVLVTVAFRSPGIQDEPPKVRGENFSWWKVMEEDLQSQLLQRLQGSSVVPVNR
# B3: Cilium assembly protein DZIP1L (Homo sapiens), Q8IYY4 (parent)
# chain: MQSPAATAEGLSGPLFGAYTFPTFKFQPRHDSMDWRRISTLDVDRVARELDVATLQENIAGITFCNLDREVCSRCGQPVDPALLKVLRLAQLIIEYLLHCQDCLSASVAQLEARLQTSLGQQQRGQQELGRQADELKGVREESRRRRKMISTLQQLLMQTGTHSYHTCHLCDKTFMNATFLRGHIQRRHAGVAEGGKQKKQEQPVEEVLEELRAKLKWTQGELEAQREAERQRQLQEAELIHQREIEAKKEFDKWKEQEWTKLYGEIDKLKKLFWDEFKNVAKQNSTLEEKLRALQSHSVMESKLGSLRDEESEEWLRQARELQALREKTEIQKTEWKRKVKELHEEHMAEKKELQEENQRLQASLSQDQKKAAAQSQCQISTLRAQLQEQARIIASQEEMIQSLSLRKVEGIHKVPKAVDTEEDSPEEEMEDSQDEQHKVLAALRRNPTLLKHFRPILEDTLEEKLESMGIRKDAKGISIQTLRHLESLLRVQREQKARKFSEFLSLRGKLVKEVTSRAKERQENGAVVSQPDGQPSVKSQQSTLVTREAQPKTRTLQVALPSTPAEPPPPTRQSHGSHGSSLTQVSAPAPRPGLHGPSSTPPSSGPGMSTPPFSSEEDSEGDRVQRVSLQPPKVPSRMVPRPKDDWDWSDTETSEENAQPPGQGSGTLVQSMVKNLEKQLEAPAKKPAGGVSLFFMPNAGPQRAATPGRKPQLSEDESDLEISSLEDLPLDLDQREKPKPLSRSKLPEKFGTGPQSSGQPRVPAW
# B4: A-kinase anchor protein 17A (Homo sapiens), Q02040 (parent)
# chain: MAAATIVHDTSEAVELCPAYGLYLKPITKMTISVALPQLKQPGKSISNWEVMERLKGMVQNHQFSTLRISKSTMDFIRFEGEVENKSLVKSFLACLDGKTIKLSGFSDILKVRAAEFKIDFPTRHDWDSFFRDAKDMNETLPGERPDTIHLEGLPCKWFALKESGSEKPSEDVLVKVFEKFGEIRNVDIPMLDPYREEMTGRNFHTFSFGGHLNFEAYVQYREYMGFIQAMSALRGMKLMYKGEDGKAVACNIKVSFDSTKHLSDASIKKRQLERQKLQELEQQREEQKRREKEAEERQRAEERKQKELEELERERKREEKLRKREQKQRDRELRRNQKKLEKLQAEEQKQLQEKIKLEERKLLLAQRNLQSIRLIAELLSRAKAVKLREQEQKEEKLRLQQQEERRRLQEAELRRVEEEKERALGLQRKERELRERLLSILLSKKPDDSHTHDELGVAHADLLQPVLDILQTVSSGCVSATTLHPLGGQPPAGAPKESPAHPEADGAPKSVNGSVAEEAPCKEVQSSCRVVPEDGSPEKRCPGGVLSCIPDNNQQPKGIPACEQNVSRKDTRSEQDKCNREPSKGRGRATGDGLADRHKRERSRARRASSREDGRPRKERRPHKKHAYKDDSPRRRSTSPDHTRSRRSHSKDRHRRERSRERRGSASRKHSRHRRRSERSRSRSPSRHRSTWNR
# B5: Notch homolog 2 N-terminal-like protein A (Homo sapiens), Q7Z3S9 (parent)
# chain: MCVTYHNGTGYCKCPEGFLGEYCQHRDPCEKNRCQNGGTCVAQAMLGKATCRCASGFTGEDCQYSTSHPCFVSRPCLNGGTCHMLSRDTYECTCQVGFTGKECQWTDACLSHPCANGSTCTTVANQFSCKCLTGFTGQKCETDVNECDIPGHCQHGGTCLNLPGSYQCQCLQGFTGQYCDSLYVPCAPSPCVNGGTCRQTGDFTFECNCLPETVRRGTELWERDREVWNGKEHDEN
# B6: Synaptotagmin-like protein 4 (Homo sapiens), Q96C24 (parent)
# chain: MSELLDLSFLSEEEKDLILSVLQRDEEVRKADEKRIRRLKNELLEIKRKGAKRGSQHYSDRTCARCQESLGRLSPKTNTCRGCNHLVCRDCRIQESNGTWRCKVCAKEIELKKATGDWFYDQKVNRFAYRTGSEIIRMSLRHKPAVSKRETVGQSLLHQTQMGDIWPGRKIIQERQKEPSVLFEVPKLKSGKSALEAESESLDSFTADSDSTSRRDSLDKSGLFPEWKKMSAPKSQVEKETQPGGQNVVFVDEGEMIFKKNTRKILRPSEYTKSVIDLRPEDVVHESGSLGDRSKSVPGLNVDMEEEEEEEDIDHLVKLHRQKLARSSMQSGSSMSTIGSMMSIYSEAGDFGNIFVTGRIAFSLKYEQQTQSLVVHVKECHQLAYADEAKKRSNPYVKTYLLPDKSRQGKRKTSIKRDTINPLYDETLRYEIPESLLAQRTLQFSVWHHGRFGRNTFLGEAEIQMDSWKLDKKLDHCLPLHGKISAESPTGLPSHKGELVVSLKYIPASKTPVGGDRKKSKGGEGGELQVWIKEAKNLTAAKAGGTSDSFVKGYLLPMRNKASKRKTPVMKKTLNPHYNHTFVYNGVRLEDLQHMCLELTVWDREPLASNDFLGGVRLGVGTGISNGEVVDWMDSTGEEVSLWQKMRQYPGSWAEGTLQLRSSMAKQKLGL
# B7: Notch homolog 2 N-terminal-like protein A (Homo sapiens), Q7Z3S9 (parent)
# chain: B5 chain
# partner: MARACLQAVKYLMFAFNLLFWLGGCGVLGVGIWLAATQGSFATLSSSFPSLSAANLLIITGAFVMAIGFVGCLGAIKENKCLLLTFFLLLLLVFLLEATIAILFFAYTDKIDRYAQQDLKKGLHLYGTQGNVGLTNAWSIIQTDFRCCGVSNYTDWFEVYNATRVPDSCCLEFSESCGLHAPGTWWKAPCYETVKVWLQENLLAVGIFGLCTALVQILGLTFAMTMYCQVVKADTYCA
# Variants of: B1
# Conditions: with rusc1_human RUSC1, Q9BVN2
row,Variant,effect of a mutation on the interaction
1,R23H,with no effect

# Variants of: B2
# Conditions: with nud18_human NUDT18, Q6ZVK8
row,Variant,effect of a mutation on the interaction
1,G111A,with no effect
2,M181V,with no effect

# Variants of: B3
# Conditions: with cep76_human CEP76, Q8TAP6
# Sequence of cep76_human CEP76, Q8TAP6 (Q8TAP6 whole entry): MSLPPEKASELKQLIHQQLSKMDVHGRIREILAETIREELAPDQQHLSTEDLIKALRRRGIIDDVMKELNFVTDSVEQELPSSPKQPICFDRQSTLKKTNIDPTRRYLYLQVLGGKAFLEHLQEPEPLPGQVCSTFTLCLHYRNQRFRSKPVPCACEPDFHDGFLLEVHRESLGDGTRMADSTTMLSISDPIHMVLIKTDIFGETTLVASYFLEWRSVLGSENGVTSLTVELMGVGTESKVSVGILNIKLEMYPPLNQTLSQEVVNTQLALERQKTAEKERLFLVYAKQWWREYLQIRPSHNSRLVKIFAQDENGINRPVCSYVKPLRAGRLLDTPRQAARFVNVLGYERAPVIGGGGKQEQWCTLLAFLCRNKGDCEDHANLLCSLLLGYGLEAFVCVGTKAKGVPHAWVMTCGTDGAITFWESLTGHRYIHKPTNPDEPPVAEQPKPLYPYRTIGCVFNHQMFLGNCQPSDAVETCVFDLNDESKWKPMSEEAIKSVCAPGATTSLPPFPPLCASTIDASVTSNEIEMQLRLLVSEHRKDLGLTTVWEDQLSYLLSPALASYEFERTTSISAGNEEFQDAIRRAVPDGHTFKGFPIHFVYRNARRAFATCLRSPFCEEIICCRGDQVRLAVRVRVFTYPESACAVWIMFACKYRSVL
row,Variant,effect of a mutation on the interaction
1,R625H,with no effect
2,R88C,with no effect
3,G595E,with no effect

# Variants of: B4
# Conditions: with cep70_human CEP70, Q8NHQ1
# Target sequence in this assay (Q8NHQ1 whole entry): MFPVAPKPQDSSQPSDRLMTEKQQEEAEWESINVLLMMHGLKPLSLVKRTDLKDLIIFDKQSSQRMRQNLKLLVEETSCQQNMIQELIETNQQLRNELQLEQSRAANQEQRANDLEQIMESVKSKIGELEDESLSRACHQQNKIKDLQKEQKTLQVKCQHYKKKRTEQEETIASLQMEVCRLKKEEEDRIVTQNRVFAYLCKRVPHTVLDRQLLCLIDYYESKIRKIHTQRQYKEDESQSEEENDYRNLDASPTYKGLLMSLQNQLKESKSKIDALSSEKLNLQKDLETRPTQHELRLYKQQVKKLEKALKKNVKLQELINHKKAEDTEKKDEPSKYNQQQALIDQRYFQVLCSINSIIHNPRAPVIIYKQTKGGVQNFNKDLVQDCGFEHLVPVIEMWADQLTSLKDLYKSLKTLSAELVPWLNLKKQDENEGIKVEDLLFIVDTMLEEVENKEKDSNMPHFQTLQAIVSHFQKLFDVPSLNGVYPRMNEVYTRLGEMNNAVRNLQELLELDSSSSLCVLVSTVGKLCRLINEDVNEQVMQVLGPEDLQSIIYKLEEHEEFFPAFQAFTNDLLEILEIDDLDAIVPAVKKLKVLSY
row,Variant,effect of a mutation on the interaction
1,R298K,with no effect
2,R675C,with no effect

# Variants of: B5
# Conditions: with pde9a_human PDE9A
row,Variant,effect of a mutation on the interaction
1,A115T,with no effect
2,R74Q,with no effect

# Variants of: B5
# Conditions: with ppbi_human ALPI
row,Variant,effect of a mutation on the interaction
1,A115T,with no effect
2,R74Q,with no effect

# Variants of: B5
# Conditions: with snai1_human SNAI1, O95863
# Sequence of snai1_human SNAI1, O95863 (O95863 whole entry): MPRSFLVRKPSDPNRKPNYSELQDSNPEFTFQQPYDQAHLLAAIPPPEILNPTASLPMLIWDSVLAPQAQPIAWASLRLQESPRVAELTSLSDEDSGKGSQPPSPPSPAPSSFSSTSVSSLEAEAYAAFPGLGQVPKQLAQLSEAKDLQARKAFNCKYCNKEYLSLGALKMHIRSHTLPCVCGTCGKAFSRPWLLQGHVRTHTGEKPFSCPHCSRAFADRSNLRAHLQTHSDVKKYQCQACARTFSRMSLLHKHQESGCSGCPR
row,Variant,effect of a mutation on the interaction
1,A115T,with no effect
2,R74Q,with no effect

# Variants of: B5
# Conditions: with anfb_human NPPB
row,Variant,effect of a mutation on the interaction
1,A115T,with no effect
2,R74Q,with no effect

# Variants of: B5
# Conditions: with adck5_human ADCK5, Q3MIX3
# Sequence of adck5_human ADCK5, Q3MIX3 (Q3MIX3 whole entry): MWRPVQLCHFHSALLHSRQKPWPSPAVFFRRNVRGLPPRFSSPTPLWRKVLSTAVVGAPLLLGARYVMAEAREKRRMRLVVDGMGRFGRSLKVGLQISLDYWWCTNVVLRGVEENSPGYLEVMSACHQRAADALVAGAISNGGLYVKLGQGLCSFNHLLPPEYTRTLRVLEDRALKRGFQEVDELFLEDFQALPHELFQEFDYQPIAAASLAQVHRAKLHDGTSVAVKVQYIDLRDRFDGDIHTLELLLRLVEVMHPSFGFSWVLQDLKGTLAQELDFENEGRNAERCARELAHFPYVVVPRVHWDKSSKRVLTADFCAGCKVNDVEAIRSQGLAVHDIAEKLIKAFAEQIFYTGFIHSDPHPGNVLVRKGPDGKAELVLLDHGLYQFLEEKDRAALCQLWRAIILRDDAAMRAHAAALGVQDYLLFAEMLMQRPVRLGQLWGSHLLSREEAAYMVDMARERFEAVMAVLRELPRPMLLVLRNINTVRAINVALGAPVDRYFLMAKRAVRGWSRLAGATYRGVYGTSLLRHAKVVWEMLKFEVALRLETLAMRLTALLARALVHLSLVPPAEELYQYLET
row,Variant,effect of a mutation on the interaction
1,A115T,with no effect
2,R74Q,with no effect

# Variants of: B5
# Conditions: with catz_human CTSZ
row,Variant,effect of a mutation on the interaction
1,A115T,with no effect
2,R74Q,with no effect

# Variants of: B5
# Conditions: with txnd5_human TXNDC5, Q8NBS9
row,Variant,effect of a mutation on the interaction
1,A115T,with no effect
2,R74Q,with no effect

# Variants of: B5
# Conditions: with trpv6_human TRPV6, Q9H1D0
row,Variant,effect of a mutation on the interaction
1,A115T,with no effect
2,R74Q,with no effect

# Variants of: B5
# Conditions: with ptn23_human PTPN23, Q9H3S7
# Sequence of ptn23_human PTPN23, Q9H3S7 (Q9H3S7 whole entry): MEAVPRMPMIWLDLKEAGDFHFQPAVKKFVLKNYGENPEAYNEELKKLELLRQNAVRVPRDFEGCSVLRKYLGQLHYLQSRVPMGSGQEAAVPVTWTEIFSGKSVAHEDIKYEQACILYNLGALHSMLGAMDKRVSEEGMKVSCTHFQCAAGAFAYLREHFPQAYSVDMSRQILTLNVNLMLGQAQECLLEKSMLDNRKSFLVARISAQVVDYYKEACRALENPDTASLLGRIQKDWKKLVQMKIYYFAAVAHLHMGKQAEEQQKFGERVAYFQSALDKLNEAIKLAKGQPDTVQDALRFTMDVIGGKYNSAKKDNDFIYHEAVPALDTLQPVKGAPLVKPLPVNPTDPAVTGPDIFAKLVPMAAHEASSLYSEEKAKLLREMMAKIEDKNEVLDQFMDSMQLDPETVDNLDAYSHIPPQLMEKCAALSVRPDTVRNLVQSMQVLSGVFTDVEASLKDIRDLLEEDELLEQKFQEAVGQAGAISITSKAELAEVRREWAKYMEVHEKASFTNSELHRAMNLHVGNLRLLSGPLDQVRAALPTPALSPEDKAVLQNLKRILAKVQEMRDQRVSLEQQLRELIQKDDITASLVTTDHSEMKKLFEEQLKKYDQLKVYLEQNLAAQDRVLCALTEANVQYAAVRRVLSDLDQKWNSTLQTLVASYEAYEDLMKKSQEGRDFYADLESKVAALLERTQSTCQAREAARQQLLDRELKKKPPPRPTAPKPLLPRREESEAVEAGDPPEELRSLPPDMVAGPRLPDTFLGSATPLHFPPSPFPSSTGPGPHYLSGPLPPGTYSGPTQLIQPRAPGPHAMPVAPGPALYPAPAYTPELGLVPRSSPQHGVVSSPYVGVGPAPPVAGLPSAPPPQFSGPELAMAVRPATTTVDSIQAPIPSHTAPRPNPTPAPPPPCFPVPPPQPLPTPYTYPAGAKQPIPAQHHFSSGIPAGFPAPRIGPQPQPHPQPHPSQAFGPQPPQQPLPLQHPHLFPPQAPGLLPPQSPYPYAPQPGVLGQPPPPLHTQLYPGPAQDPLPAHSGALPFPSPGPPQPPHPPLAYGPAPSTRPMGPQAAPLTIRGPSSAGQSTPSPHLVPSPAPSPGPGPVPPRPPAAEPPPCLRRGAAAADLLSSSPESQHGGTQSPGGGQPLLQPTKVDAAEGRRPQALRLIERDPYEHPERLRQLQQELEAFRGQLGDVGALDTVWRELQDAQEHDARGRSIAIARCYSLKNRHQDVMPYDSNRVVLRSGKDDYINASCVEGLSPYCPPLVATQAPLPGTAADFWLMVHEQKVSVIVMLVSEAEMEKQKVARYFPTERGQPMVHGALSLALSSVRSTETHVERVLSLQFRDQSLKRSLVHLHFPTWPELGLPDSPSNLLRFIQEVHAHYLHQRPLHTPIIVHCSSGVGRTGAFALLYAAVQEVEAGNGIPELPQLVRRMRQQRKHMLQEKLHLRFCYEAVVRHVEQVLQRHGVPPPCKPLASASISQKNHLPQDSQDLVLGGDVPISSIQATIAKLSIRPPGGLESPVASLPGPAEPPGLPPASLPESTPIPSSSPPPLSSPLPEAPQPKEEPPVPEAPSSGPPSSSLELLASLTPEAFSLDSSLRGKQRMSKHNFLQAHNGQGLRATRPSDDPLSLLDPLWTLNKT
row,Variant,effect of a mutation on the interaction
1,A115T,with no effect
2,R74Q,with no effect

# Variants of: B5
# Conditions: with gata2_human GATA2, P23769
# Sequence of gata2_human GATA2, P23769 (P23769 whole entry): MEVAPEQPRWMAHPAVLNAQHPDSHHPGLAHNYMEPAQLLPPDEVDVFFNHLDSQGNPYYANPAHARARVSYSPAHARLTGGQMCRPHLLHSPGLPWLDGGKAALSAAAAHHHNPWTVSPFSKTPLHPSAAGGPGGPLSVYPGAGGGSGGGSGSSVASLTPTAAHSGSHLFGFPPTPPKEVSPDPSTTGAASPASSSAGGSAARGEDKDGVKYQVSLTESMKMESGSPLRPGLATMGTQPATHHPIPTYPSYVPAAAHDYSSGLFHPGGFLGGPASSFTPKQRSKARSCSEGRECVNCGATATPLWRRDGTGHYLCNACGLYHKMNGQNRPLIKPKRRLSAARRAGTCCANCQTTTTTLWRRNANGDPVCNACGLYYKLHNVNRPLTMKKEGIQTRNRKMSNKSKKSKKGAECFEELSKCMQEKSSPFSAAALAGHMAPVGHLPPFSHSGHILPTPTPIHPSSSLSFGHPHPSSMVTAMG
row,Variant,effect of a mutation on the interaction
1,A115T,with no effect
2,R74Q,with no effect

# Variants of: B5
# Conditions: with hbaz_human HBZ
row,Variant,effect of a mutation on the interaction
1,A115T,with no effect
2,R74Q,with no effect

# Variants of: B5
# Conditions: with nect3_human NECTIN3, Q9NQS3
row,Variant,effect of a mutation on the interaction
1,A115T,with no effect
2,R74Q,with no effect

# Variants of: B5
# Conditions: with itb2_human ITGB2, P05107
row,Variant,effect of a mutation on the interaction
1,A115T,with no effect

# Variants of: B5
# Conditions: with cd5r1_human CDK5R1, Q15078
row,Variant,effect of a mutation on the interaction
1,A115T,with no effect
2,R74Q,with no effect

# Variants of: B5
# Conditions: with uxt_human UXT
row,Variant,effect of a mutation on the interaction
1,A115T,with no effect
2,R74Q,with no effect

# Variants of: B5
# Conditions: with yipf3_human YIPF3, Q9GZM5
# Sequence of yipf3_human YIPF3, Q9GZM5 (Q9GZM5 whole entry): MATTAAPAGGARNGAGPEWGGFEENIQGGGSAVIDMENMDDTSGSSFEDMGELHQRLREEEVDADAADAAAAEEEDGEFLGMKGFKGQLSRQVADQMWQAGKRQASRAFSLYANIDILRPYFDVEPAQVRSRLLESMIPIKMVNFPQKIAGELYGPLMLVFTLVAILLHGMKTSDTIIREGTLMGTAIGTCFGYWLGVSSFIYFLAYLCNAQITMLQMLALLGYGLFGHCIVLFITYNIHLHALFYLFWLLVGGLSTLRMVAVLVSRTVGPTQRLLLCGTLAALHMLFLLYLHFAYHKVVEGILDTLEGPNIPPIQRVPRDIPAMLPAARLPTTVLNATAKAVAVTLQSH
row,Variant,effect of a mutation on the interaction
1,A115T,with no effect
2,R74Q,with no effect

# Variants of: B5
# Conditions: with thms2_human THEMIS2, Q5TEJ8
row,Variant,effect of a mutation on the interaction
1,A115T,with no effect
2,R74Q,with no effect

# Variants of: B5
# Conditions: with bmp7_human BMP7, P18075
# Sequence of bmp7_human BMP7, P18075 (P18075 whole entry): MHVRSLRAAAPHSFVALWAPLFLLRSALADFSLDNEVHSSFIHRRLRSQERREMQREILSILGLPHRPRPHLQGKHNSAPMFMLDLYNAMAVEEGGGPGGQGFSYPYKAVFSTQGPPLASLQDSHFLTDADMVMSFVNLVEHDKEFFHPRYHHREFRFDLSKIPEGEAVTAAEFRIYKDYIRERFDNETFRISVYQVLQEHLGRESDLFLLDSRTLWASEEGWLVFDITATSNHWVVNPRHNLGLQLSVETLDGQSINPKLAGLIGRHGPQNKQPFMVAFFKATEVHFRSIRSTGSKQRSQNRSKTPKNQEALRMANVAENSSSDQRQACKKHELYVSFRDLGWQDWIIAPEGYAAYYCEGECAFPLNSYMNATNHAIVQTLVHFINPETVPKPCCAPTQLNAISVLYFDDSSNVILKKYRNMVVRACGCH
row,Variant,effect of a mutation on the interaction
1,A115T,with no effect
2,R74Q,with no effect

# Variants of: B5
# Conditions: with cxcl5_human CXCL5, P42830
row,Variant,effect of a mutation on the interaction
1,A115T,with no effect
2,R74Q,with no effect

# Variants of: B6
# Conditions: with hm20a_human HMG20A
row,Variant,effect of a mutation on the interaction
1,D252G,with no effect
2,M646I,with no effect

# Variants of: B6
# Conditions: with cep70_human CEP70, Q8NHQ1
# Target sequence in this assay (Q8NHQ1 whole entry): as the sequence (Q8NHQ1 whole entry) above
row,Variant,effect of a mutation on the interaction
1,D252G,with no effect
2,M646I,disrupting interaction strength

# Variants of: B7
# Conditions: with tsn4_human TSPAN4, O14817
row,Variant,effect of a mutation on the interaction
1,A115T,with no effect
2,R74Q,with no effect
